Results reported in patent US9809653B2, “Anti-LAMP1 antibodies and antibody drug conjugates, and uses thereof” (SANOFI, priority 2012, dated 2017).
“Also recorded” adds a separate entry of the source.

T1: Mouse LAMP1 (Mus musculus, UniProt P11438)
T1 construct: made in house; host or cells: HEK293 (293-F), transient expression, IMAC-purified
T1 sequence (P11438 with tags, fused parts or gaps): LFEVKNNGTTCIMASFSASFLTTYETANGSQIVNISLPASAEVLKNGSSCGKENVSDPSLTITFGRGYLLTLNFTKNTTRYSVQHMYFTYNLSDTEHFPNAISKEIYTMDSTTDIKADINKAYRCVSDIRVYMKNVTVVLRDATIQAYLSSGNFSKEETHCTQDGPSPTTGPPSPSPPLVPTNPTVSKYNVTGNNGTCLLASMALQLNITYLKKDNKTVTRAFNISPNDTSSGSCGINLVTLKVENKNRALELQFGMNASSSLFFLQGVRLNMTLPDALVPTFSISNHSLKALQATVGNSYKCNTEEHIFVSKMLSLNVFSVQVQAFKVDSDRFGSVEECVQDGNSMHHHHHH

T2: hLAMP1_ΔGYQTI (Homo sapiens, UniProt P11279)
T2 construct: expressed in transfected cells; host or cells: 293-F (HEK293-derived), transient transfection, plasmid pXL5626
T2 sequence (P11279 with tags, fused parts or gaps limits assumed): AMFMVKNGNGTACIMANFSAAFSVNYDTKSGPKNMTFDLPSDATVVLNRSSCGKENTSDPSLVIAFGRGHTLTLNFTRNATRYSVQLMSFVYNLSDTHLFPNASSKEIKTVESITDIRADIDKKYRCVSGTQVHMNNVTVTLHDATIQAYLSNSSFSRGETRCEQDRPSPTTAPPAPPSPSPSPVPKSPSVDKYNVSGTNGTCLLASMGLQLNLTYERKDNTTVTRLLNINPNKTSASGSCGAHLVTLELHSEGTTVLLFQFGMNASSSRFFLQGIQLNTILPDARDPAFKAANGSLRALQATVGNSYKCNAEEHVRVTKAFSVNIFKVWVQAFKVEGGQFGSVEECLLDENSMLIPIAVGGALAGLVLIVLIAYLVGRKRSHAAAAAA

T3: cell surface LAMP1 on Patient-derived tumor xenografts and tumor cell lines (Homo sapiens, UniProt P11279)
T3 construct: endogenous in cells; host or cells: enzymatically dissociated patient-derived xenograft tumour cells (e.g. CR-IGR-034P, LUN-NIC-014P, BRE-IGR-0159) and tumour cell lines
T3 sequence (P11279 29-417): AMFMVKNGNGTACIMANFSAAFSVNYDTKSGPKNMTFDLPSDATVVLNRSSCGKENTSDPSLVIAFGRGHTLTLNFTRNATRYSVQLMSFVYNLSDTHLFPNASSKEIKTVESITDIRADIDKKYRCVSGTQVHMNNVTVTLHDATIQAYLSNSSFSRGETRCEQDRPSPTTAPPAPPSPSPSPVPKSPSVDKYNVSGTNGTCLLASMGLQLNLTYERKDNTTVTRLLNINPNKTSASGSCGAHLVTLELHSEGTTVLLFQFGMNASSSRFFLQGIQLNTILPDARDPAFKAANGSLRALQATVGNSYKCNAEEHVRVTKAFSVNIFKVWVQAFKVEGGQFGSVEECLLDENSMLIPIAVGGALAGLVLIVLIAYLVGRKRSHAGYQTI


What was measured:
Mouse LAMP1 = molecular target: T1, Mouse LAMP1; assay: ELISA on mouse LAMP1 extracellular domain; format: binding
Description: The high level of glycosylation of the antigen required a specific approach to determine the binding site of the anti-LAMP1 mAbs on LAMP1. […] This absence of binding was used to design several chimeric LAMP1 proteins in which one or several of the LAMP1 domains (Loop1-Loop4) in the human construct were replaced by the murine counterpart. The absence of binding once the binding site of the antibody was replaced by the murine counterpart allowed for identification of the antibody binding side.
Secreted LAMP1 proteins described in example 6.2 were used to identify the binding domain to anti-LAMP1 mAbs by ELISA.

[1] = test system: cynomolgus monkey LAMP1 expressed transiently at the cell surface of HEK293; assay: FACS on HEK293 cells transiently transfected with cynomolgus LAMP1; format: binding; details: transient HEK293
Sequence of cynomolgus monkey LAMP1 expressed transiently at the cell surface of HEK293 (as listed by the source): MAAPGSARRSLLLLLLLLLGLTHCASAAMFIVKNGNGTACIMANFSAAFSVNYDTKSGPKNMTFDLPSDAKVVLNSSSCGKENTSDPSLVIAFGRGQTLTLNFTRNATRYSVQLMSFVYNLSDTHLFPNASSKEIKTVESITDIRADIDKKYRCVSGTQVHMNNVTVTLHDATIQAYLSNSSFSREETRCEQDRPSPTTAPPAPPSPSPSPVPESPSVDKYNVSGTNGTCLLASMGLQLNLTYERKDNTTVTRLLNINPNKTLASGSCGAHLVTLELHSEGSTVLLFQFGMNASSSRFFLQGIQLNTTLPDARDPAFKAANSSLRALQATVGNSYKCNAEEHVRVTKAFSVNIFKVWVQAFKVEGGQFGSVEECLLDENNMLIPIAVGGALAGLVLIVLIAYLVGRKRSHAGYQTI
Description: LAMP1 Coding DNA Sequence, RefSeq NM_005561.3 (SEQ ID NO: 23) was cloned internally. The CDS of Macaca mulatta LAMP1, RefSeq XP_001087801 (SEQ ID NO: 27) was also cloned internally. The predicted sequences of mature LAMP1 from Macaca mulatta and Macaca fascicularis are identical to 99%, said sequence differing by one additional Leucin at position 11 of Macaca mulatta (SEQ ID NO: 27), i.e. in the signal peptide. The mature LAMP1 proteins of Macaca mulatta and Macaca fascicularis are identical. Therefore the secreted LAMP1 used in the following example is referred to cynomolgus monkey. Both CDS were cloned into mammalian expression plasmids under CMV enhancer/promoter and SV40 polyA signals. HEK293 cells (Invitrogen; #K9000-10.) were transiently transfected with human LAMP1 or cynomolgus LAMP1 plasmids using FreeStyle™ MAX 293 Expression System according to the manufacturer's instructions. […] 100 μL/well of goat anti-mouse IgG conjugated with Alexa647 (Invitrogen; #A2135) was added for 45 min at 4° C. and washed three times with PBS 1% BSA. The antibody binding was evaluated after centrifugation and resuspension of cells by adding 200 μl/well PBS 1% BSA and read using Guava® easyCyte™ 8HT Flow Cytometry System. EC50 values were estimated using BIOST@T-SPEED software.

hLAMP1_ΔGYQTI = molecular target: T2, hLAMP1_ΔGYQTI; assay: Binding onto membrane-anchored human LAMP1 (293-F cells) by flow cytometry; details: pXL5626 hLAMP1_ΔGYQTI
Description: Different LAMP1 proteins were expressed at the cell membrane of HEK293 cells after transient expression from mammalian plasmids encoding the entire coding sequence of LAMP1 deleted of the intracellular lysosome-targeting motif GYQTI and substituted by a 5-Ala repeat sequence.
Two days post transfection cells were processed, analyzed by flow cytometry (Guava® easyCyte™ 8HT) as mentioned in example 4.7, and the mean fluorescence was recorded. This fluorescence represents a semi-quantitative assessment of binding.

[2] = molecular target: T3, cell surface LAMP1 on Patient-derived tumor xenografts and tumor cell lines; assay: Antibody binding capacity (ABC) by FACS on patient-derived xenografts and tumor cell lines
Description: Antibody binding capacity of antibody was determined using Mouse IgG Calibrator kit (Biocytex #7208) or Human IgG Calibrator Kit (Biocytex #CP010) according to the manufacturer's instructions.
The panel of tumor cells comprises Patient-derived tumor xenografts from different origins and tumor cell lines. FIG. 2 illustrates the expression profile and Table 4 summarizes the antibody binding capacity results.
The panel of tumor cells comprises Patient-derived tumor xenografts from different origins and tumor cell lines.

Binding call (hLAMP1_ΔGYQTI; Table 17 Experiment no1) | Mean fluorescence (hLAMP1_ΔGYQTI; Table 17 Experiment no1) | Binding call (hLAMP1_ΔGYQTI; Table 17 Experiment no2) | Mean fluorescence (hLAMP1_ΔGYQTI; Table 17 Experiment no2) | Binding call (hLAMP1_ΔGYQTI; Table 18) | Mean fluorescence (hLAMP1_ΔGYQTI; Table 18) | Antibody Binding Capacity (ABC) ([2]; CR-IGR-034P/colorectal PDX) | Antibody Binding Capacity (ABC) ([2]; CR-LRB-003P/colorectal PDX) | Antibody Binding Capacity (ABC) ([2]; CR-LRB-010P/colorectal PDX) | Antibody Binding Capacity (ABC) ([2]; Colo205/colon cell line) | Antibody Binding Capacity (ABC) ([2]; LS174T/colon cell line) | Antibody Binding Capacity (ABC) ([2]; LUN-NIC-014/lung PDX) | Antibody Binding Capacity (ABC) ([2]; LUN-NIC-025/lung PDX) | Antibody Binding Capacity (ABC) ([2]; OVA-IGR-0022/ovary PDX) | Antibody Binding Capacity (ABC) ([2]; STO-IND-006/stomach PDX) | Antibody Binding Capacity (ABC) ([2]; SW480/colon cell line) | Molecule | EC50 (nM) Mouse LAMP1 (Mouse LAMP1) | EC50 [1] [nM]
Binding | 1748 | Full binding | 551 | Binding | 914 | 230,000 | 25 000 | 140,000 | 6,000 | 6,000 | 104,000 | 33,000 | 67,000 | 90,000 | 2,500 | MAb1: murine monoclonal anti-LAMP1 antibody, VH SEQ ID NO: 1, VL SEQ ID NO: 5 (antibody, V domains shown, Antibody Fragment; antibody fragment) VH: QVQLQQSGAELVKPGASVKMSCKASGYIFTNYNIHWVKKSPGQGLEWIGAIYPGNGDAPYSQKFKDKATLTADKSSSTTYMQLSRLTSEDSAVYYCVRANWDVAFAYWGQGTLVSVSA VL: DIQMTQSPPSLSASLGGKVTITCKASQDIDRYMAWYQDKPGKGPRLLIHDTSTLQPGIPSRFSGSGSGRDYSFSISNLEPEDIATYYCLQYDNLWTFGGGTKLEIK | do not show any binding; also recorded: No binding | 44
binding | 1183 | – | – | Binding | 757 | 180,000 | 22 000 | 95,000 | 4,000 | 3,600 | 102,000 | 27,000 | 60,000 | 64,000 | 1,700 | MAb2: murine monoclonal anti-LAMP1 antibody, VH SEQ ID NO: 8, VL SEQ ID NO: 12 (antibody, V domains shown, antibod fragment; antibody fragment) VH: QVQLQQSAAELARPGASVKMSCKASGYTFTSYTMHWVKQRPGQGLEWIGYFNPSSGYPEYNQKFKDKTTLTADKSSNTAFIQLNSLTSEDSAVYYCSRGYYYGSRGYALDFWGQGASVTVSS VL: NIVLTQSPVSLAVSLGQRATISCRASESVDINGNTFMHWYQQKPGQSPKLVIYAASNIESGVPARFSGSGSSTDFTFTIDPVEADDVATYYCQQNIEDPWTFGGGTKVEIK | do not show any binding; also recorded: No binding | –
